Assay results reported in patent publication US20050085420A1, “Method of modulating apoptosis and compositions thereof” (priority 2003, published 2005).

How the values were obtained:
MEFs = experiment: G418 selection of mouse embryonic fibroblasts; format: cell-based; details: 0.3 mg/ml G418, 3 days
Protocol: vdac1 -/- and vdac2 -/- embryonic stem (ES) cells were described previously S. Wu, M. J. Sampson, W. K. Decker, W. J. Craigen, Biochim Biophys Acta 1452, 68-78. (1999). 129/SvEv derived ES cell clones with homozygous deletion of vdac2 alleles were microinjected into blastocysts from C57BL/6 female mice. Mouse embryonic fibroblasts derived from E13.5 day chimeric embryos were treated with 0.3 mg/ml G418 (GIBCO-BRL) at second passage for 5 days to select for vdac2 -/- cells. Normally, 100% of MEFs died at 3 days in the presence of 0.3 mg/ml G418. Deficiency of VDAC2 in cells following G418 selection was confirmed by an immunoblot developed with an anti-VDAC2 Ab.

BAK = molecular target: T1, BAK (Mus musculus, UniProt O08734); experiment: Co-precipitation of endogenous BAK with HA-tagged VDAC2; format: binding; details: wt MEF mitochondria, CHAPS, anti-HA immunoprecipitation
T1 construct: endogenous in cells; host or cells: wt MEFs transduced with HA-VDAC2 retrovirus; mitochondria solubilized in 1% CHAPS or 0.2% NP-40
T1 sequence (O08734 2-209 limits assumed): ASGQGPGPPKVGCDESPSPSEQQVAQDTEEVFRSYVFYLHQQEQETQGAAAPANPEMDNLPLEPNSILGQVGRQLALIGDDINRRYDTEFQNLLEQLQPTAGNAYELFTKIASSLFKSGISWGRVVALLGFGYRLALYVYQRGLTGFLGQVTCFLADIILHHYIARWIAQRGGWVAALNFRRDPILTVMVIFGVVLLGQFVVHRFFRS
T1 sequence (Q60930 1-295 partner): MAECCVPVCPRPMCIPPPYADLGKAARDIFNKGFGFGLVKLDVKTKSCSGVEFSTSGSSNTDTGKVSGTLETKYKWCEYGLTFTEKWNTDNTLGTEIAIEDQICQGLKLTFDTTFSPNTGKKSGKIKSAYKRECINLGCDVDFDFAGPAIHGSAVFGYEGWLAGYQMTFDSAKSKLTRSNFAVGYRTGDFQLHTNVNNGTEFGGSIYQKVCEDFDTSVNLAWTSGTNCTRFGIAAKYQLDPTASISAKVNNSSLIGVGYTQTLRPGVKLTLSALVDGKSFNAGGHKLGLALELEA
Protocol: (§1) FIG. 2E is a photograph depicting mitochondria isolated from wt MEFs (upper panel) or Bax, Bak doubly deficient MEFs (lower panel), which were transduced with retrovirus expressing N-terminal HA-tagged VDAC2, BAK or BAX and were solubilized in either 1% CHAPS or 0.2% NP-40 buffer, followed by immunoprecipitation with an anti-HA antibody. The immunoprecipitates were analyzed by an immunoblot developed with anti-HA-Biotin, anti-BAK, anti-BAX, or anti-VDAC2 Abs as indicated.
(§2) An HA-tagged BAK, but not HA-tagged BAX co-precipitated endogenous VDAC2 (FIG. 2E).

BAX = molecular target: T2, BAX (Mus musculus, UniProt Q07813); experiment: Co-precipitation of endogenous BAX with HA-tagged VDAC2; format: binding; details: wt MEF mitochondria, CHAPS, anti-HA immunoprecipitation
T2 construct: endogenous in cells; host or cells: wt MEFs transduced with HA-VDAC2 retrovirus; mitochondria solubilized in 1% CHAPS or 0.2% NP-40
Protocol: as §1, §2

[1] = molecular target: BCL-XL (in Bax, Bak doubly deficient MEFs) (mouse, UniProt Q64373-1 1-233); experiment: anti-HA co-immunoprecipitation in 1% CHAPS
[2] = molecular target: T3, N-terminal HA-tagged VDAC2 (murine, UniProt Q60930 1-295); experiment: anti-HA immunoprecipitation in 1% CHAPS or 0.2% NP40, anti-BIM immunoblot
T3 construct: also called HA-VDAC2; hemagglutinin (HA)-tagged version of VDAC2; not shown: N-terminal HA tag
T3 sequence (looked up): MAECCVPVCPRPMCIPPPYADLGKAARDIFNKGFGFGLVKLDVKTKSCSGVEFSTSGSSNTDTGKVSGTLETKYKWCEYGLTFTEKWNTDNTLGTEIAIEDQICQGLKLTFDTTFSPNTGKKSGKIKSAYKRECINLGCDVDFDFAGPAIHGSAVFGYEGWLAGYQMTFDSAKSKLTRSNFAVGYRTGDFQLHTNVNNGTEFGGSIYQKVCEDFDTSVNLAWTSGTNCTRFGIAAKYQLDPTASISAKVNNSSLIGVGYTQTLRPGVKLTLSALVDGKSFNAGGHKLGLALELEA
Text: Mitochondria isolated from wild-type MEFs or vdac2 -/- mouse embryonic fibroblasts (MEFS) with retroviral transduction of N-terminal HA-tagged VDAC2 were solubilized in either 1% CHAPS or 0.2% NP40 buffer, followed by anti-HA immunoprecipitation.

[3] = molecular target: the molecule itself; experiment: Superdex 200 gel filtration of mitochondrial lysates in 2% CHAPS, anti-BAK immunoblot
Protocol: The chromatographic step of Superdex 200 (HR 10/30, Amersham-Pharmacia) was performed on an automatic fast protein liquid chromatography (FPLC) station (Amersham-Pharmacia) at 4° C. The column was equilibrated with buffer containing 2% CHAPS, 300 mM NaCl, 0.2 mM DTT, and 25 mM Hepes, pH 7.5 and calibrated with thyroglobulin (669 kD, Amersham-Pharmacia), ferritin (440 kD, Amersham-Pharmacia), catalase (232 kD, Amersham-Pharmacia), aldolase (158 kD, Amersham-Pharmacia), bovine serum albumin (66 kD, Calbiochem), and cytochrome c (14 kD, Sigma). 200 μl of mitochondrial lysates (1 mg/ml protein in the same buffer as above) was loaded onto the column, eluted at a flow rate of 0.3 ml/minute. Fractions of 0.6 ml were collected, precipitated by trichloroacetic acid, and analyzed by an immunoblot (fractions 16-31) developed with an anti-BAK Ab.

VDAC1 (endogenous) = VDAC1 (endogenous) (mouse, UniProt Q60932-2 2-283, limits assumed); experiment: DSS crosslinking of vdac2-deficient ES cells, anti-BAK immunoblot
[4] = molecular target: T4, VDAC2 (endogenous, or untagged murine vdac2 re-expressed by retrovirus) (murine, UniProt Q60930 1-295); experiment: restatement of the co-immunoprecipitation result
T4 construct: In mitochondria or whole cells; also called Voltage-Dependent Anion Channel 2; protein X
T4 sequence (looked up): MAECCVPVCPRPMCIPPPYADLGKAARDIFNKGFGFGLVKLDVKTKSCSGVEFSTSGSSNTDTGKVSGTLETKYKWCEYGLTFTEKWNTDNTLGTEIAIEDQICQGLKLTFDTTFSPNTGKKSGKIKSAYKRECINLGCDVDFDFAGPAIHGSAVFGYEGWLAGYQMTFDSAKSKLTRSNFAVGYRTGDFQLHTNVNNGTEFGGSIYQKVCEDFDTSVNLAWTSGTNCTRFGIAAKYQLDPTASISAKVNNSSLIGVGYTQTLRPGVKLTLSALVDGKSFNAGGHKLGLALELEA

[5] = molecular target: T4, VDAC2 (endogenous, or untagged murine …); experiment: DSS crosslinking of reconstituted Bax, Bak doubly-deficient MEFs, anti-BAK immunoblot
[6] = molecular target: T3, N-terminal HA-tagged VDAC2; experiment: anti-HA immunoprecipitation in 1% CHAPS from Bax, Bak doubly deficient MEF mitochondria before or after etoposide, anti-PUMA immunoblot (FIG. 11B)
Protocol: For FIG. 11A, mitochondria isolated from vdac1 -/-, vdac3 -/- mouse fibroblasts with or without retroviral transduction of N-terminal HA-tagged VDAC2 were incubated with in vitro transcribed, translated PUMA protein at 30° C. for 30 min, followed by anti-HA immunoprecipitation in 1% CHAPS buffer. The immunoprecipitates were analyzed by an immunoblot developed with anti-PUMA. For FIG. 11B, mitochondria were isolated from Bax, Bak doubly deficient MEFs with or without retroviral transduction of N-terminal HA-tagged VDAC2 before or after etoposide treatment (10 μM) for 20 hours, followed by anti-HA immunoprecipitation in 1% CHAPS buffer. The immunoprecipitates were analyzed by an immunoblot developed with anti-PUMA (FIG. 11B, lower panel).

VDAC2 = molecular target: T5, VDAC2 (Mus musculus, UniProt Q60930); experiment: Anti-HA immunoprecipitation of HA-tagged VDAC2 with BH3-only molecules; format: binding; details: mitochondria, anti-HA immunoprecipitation, 1% CHAPS (or 0.2% NP40)
T5 construct: expressed in transfected cells; host or cells: vdac1 -/-, vdac3 -/- mouse fibroblasts; wt or vdac2 -/- MEFs; Bax, Bak doubly deficient MEFs (retrovirus pMIG)
T5 sequence (Q60930 1-295): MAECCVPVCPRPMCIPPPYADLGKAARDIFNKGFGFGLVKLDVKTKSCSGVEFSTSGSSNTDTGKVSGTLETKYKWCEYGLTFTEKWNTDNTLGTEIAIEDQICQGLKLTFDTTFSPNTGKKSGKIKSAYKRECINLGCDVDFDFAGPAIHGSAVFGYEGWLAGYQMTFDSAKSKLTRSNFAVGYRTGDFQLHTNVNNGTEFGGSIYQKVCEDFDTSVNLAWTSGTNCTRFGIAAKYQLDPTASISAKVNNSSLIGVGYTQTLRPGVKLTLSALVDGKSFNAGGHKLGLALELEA
Text: Murine vdac1, vdac2, N-terminal HA-tagged vdac2, N-terminal-HA tagged Bax or Bak, as well as wild type and mutant Bak (mBH1, W122A, G123E, R124A; mBH3, L75E) were cloned into the retroviral expression vector MSCV-IRES-GFP (pMIG). PcDNA3-tBID (wt and mutants) was described previously M. C. Wei et al., Genes Dev 14, 2060-71. (2000). Generation of amphotropic retroviruses and retroviral infection were described previously E. H. Cheng et al., Mol Cell 8, 705-11. (2001). Retroviral expression of each indicated protein was confirmed by immunoblot. […]
The strength of association between BIM-EL and VDAC2 was compared to the strength of the association, if any, between BIM-EL and BAK or BAX. Mitochondria isolated from Bax, Bak doubly deficient MEFs transduced with retrovirus expressing N-terminal HA-tagged BAX, BAK, or VDAC2 were solubilized in 1% CHAPS or 0.2% NP-40 buffer, followed by anti-HA immunoprecipitation. The immunoprecipitates were analyzed by an immunoblot developed with anti-BIM. […] These findings indicate that BH3-only competition for VDAC2 frees BAK, which, in the absence of its specific inhibitor VDAC2, is prone to auto-activating homo-oligomerization. […]

T2 sequence (Q07813 whole entry): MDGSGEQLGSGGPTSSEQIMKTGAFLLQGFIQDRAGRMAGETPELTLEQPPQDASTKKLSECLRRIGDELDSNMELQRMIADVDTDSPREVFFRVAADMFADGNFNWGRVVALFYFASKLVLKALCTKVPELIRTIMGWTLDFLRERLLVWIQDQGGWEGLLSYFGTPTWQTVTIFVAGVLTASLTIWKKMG
Sequence of VDAC1 (endogenous) (Q60932 15-296 limits assumed): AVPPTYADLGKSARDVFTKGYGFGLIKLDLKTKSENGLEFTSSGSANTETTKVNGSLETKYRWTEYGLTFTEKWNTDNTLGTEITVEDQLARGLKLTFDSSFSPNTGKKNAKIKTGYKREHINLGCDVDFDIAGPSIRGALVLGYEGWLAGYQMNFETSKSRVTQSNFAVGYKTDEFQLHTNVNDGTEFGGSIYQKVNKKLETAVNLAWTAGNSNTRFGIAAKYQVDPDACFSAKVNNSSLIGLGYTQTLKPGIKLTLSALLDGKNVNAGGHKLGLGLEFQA
Sequence of BCL-XL (in Bax, Bak doubly deficient MEFs) (Q64373 whole entry): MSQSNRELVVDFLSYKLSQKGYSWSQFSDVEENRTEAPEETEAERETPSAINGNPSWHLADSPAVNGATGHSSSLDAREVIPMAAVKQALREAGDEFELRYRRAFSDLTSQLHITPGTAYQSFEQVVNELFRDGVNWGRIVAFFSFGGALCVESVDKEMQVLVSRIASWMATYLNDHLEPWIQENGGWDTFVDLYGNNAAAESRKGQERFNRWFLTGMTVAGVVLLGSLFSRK

With `CN[C@@H]1[C@@H](O)[C@@H](O[C@@H]2[C@@H](O)[C@H](O[C@H]3O[C@H]([C@@H](C)O)[C@@H](O)[C@H](O)[C@H]3N)[C@@H](N)C[C@H]2N)OC[C@]1(C)O` [G418] the MEFs died (MEFs) was 100%.

B1: HA-tagged VDAC2: N-terminal HA-tagged murine VDAC2, retrovirally expressed (protein)
chain: MAECCVPVCPRPMCIPPPYADLGKAARDIFNKGFGFGLVKLDVKTKSCSGVEFSTSGSSNTDTGKVSGTLETKYKWCEYGLTFTEKWNTDNTLGTEIAIEDQICQGLKLTFDTTFSPNTGKKSGKIKSAYKRECINLGCDVDFDFAGPAIHGSAVFGYEGWLAGYQMTFDSAKSKLTRSNFAVGYRTGDFQLHTNVNNGTEFGGSIYQKVCEDFDTSVNLAWTSGTNCTRFGIAAKYQLDPTASISAKVNNSSLIGVGYTQTLRPGVKLTLSALVDGKSFNAGGHKLGLALELEA
modifications: left off: small tags and cut ends
notes: N-terminal HA-tagged murine VDAC2, retrovirally expressed
B1 was tested, and the “co-precipitation of endogenous BAK” value (BAK) was “efficiently co-precipitated” and the “co-precipitation of endogenous BAX” value (BAX) was “not”.

B2: N-terminal HA-tagged BAK (other, murine, UniProt O08734 1-209, looked up)
chain: MASGQGPGPPKVGCDESPSPSEQQVAQDTEEVFRSYVFYLHQQEQETQGAAAPANPEMDNLPLEPNSILGQVGRQLALIGDDINRRYDTEFQNLLEQLQPTAGNAYELFTKIASSLFKSGISWGRVVALLGFGYRLALYVYQRGLTGFLGQVTCFLADIILHHYIARWIAQRGGWVAALNFRRDPILTVMVIFGVVLLGQFVVHRFFRS
notes: also called HA-BAK; not shown: N-terminal HA tag
B2: no binding [1].

B3: BIM-EL (endogenous) (other, mouse, UniProt O54918-1 1-196, looked up)
chain: MAKQPSDVSSECDREGGQLQPAERPPQLRPGAPTSLQTEPQGNPDGEGDRCPHGSPQGPLAPPASPGPFATRSPLFIFVRRSSLLSRSSSGYFSFDTDRSPAPMSCDKSTQTPSPPCQAFNHYLSAMASIRQSQEEPEDLRPEIRIAQELRRIGDEFNETYTRRVFANDYREAEDHPQMVILQLLRFIFRLVWRRH
notes: also called BH3-only molecule BIM-EL
B3: binds [2].

B4: BAK (endogenous, or wild type Bak reconstituted by retrovirus) (other, murine, UniProt O08734 2-209, looked up)
chain: ASGQGPGPPKVGCDESPSPSEQQVAQDTEEVFRSYVFYLHQQEQETQGAAAPANPEMDNLPLEPNSILGQVGRQLALIGDDINRRYDTEFQNLLEQLQPTAGNAYELFTKIASSLFKSGISWGRVVALLGFGYRLALYVYQRGLTGFLGQVTCFLADIILHHYIARWIAQRGGWVAALNFRRDPILTVMVIFGVVLLGQFVVHRFFRS
notes: Integral mitochondrial membrane protein, tested in mitochondria or whole cells; also called endogenous BAK; wt Bak
B4: binds [3]; no binding (VDAC1 (endogenous)); binds [4].

B5: mutant Bak mBH3 (L75E) (other, murine, UniProt O08734 2-209, looked up)
chain: ASGQGPGPPKVGCDESPSPSEQQVAQDTEEVFRSYVFYLHQQEQETQGAAAPANPEMDNLPLEPNSILGQVGRQEALIGDDINRRYDTEFQNLLEQLQPTAGNAYELFTKIASSLFKSGISWGRVVALLGFGYRLALYVYQRGLTGFLGQVTCFLADIILHHYIARWIAQRGGWVAALNFRRDPILTVMVIFGVVLLGQFVVHRFFRS
notes: also called BAK mutated within the BH3 domain (L75E)
B5: no binding [5].

B6: PUMA (endogenous, induced by etoposide) (other, mouse, UniProt Q99ML1 1-193, looked up)
chain: MARARQEGSSPEPVEGLARDSPRPFPLGRLMPSAVSCSLCEPGLPAAPAAPALLPAAYLCAPTAPPAVTAALGGPRWPGGHRSRPRGPRPDGPQPSLSPAQQHLESPVPSAPEALAGGPTQAAPGVRVEEEEWAREIGAQLRRMADDLNAQYERRRQEEQHRHRPSPWRVMYNLFMGLLPLPRDPGAPEMEPN
notes: also called induced PUMA
For B6, the binding result [6] was “binds” and the “interaction with HA-tagged VDAC2 (co-immunoprecipitation)” value (VDAC2) was “stable interaction”.
